B1: Sigma-O factor regulatory protein RsoA (Bacillus subtilis), C0H3R4 (parent)
chain: MDGQFEQKKKQKDETYDIEHLIACFSPMIRKKLSNTSYQEREDLEQELKIKMFEKADMLLCQDVPGFWEFILYMVDENS
B2: DNA-directed RNA polymerase subunit beta (Bacillus subtilis), P37870 (parent)
chain: MTGQLVQYGRHRQRRSYARISEVLELPNLIEIQTSSYQWFLDEGLREMFQDISPIEDFTGNLSLEFIDYSLGEPKYPVEESKERDVTYSAPLRVKVRLINKETGEVKDQDVFMGDFPIMTDTGTFIINGAERVIVSQLVRSPSVYFSGKVDKNGKKGFTATVIPNRGAWLEYETDAKDVVYVRIDRTRKLPVTVLLRALGFGSDQEILDLIGENEYLRNTLDKDNTENSDKALLEIYERLRPGEPPTVENAKSLLDSRFFDPKRYDLANVGRYKINKKLHIKNRLFNQRLAETLVDPETGEILAEKGQILDRRTLDKVLPYLENGIGFRKLYPNGGVVEDEVTLQSIKIFAPTDQEGEQVINVIGNAYIEEEIKNITPADIISSISYFFNLLHGVGDTDDIDHLGNRRLRSVGELLQNQFRIGLSRMERVVRERMSIQDTNTITPQQLINIRPVIASIKEFFGSSQLSQFMDQTNPLAELTHKRRLSALGPGGLTRERAGMEVRDVHYSHYGRMCPIETPEGPNIGLINSLSSYAKVNRFGFIETPYRRVDPETGKVTGRIDYLTADEEDNYVVAQANARLDDEGAFIDDSIVARFRGENTVVSRNRVDYMDVSPKQVVSAATACIPFLENDDSNRALMGANMQRQAVPLMQPEAPFVGTGMEYVSGKDSGAAVICKHPGIVERVEAKNVWVRRYEEVDGQKVKGNLDKYSLLKFVRSNQGTCYNQRPIVSVGDEVVKGEILADGPSMELGELALGRNVMVGFMTWDGYNYEDAIIMSERLVKDDVYTSIHIEEYESEARDTKLGPEEITRDIPNVGEDALRNLDDRGIIRIGAEVKDGDLLVGKVTPKGVTELTAEERLLHAIFGEKAREVRDTSLRVPHGGGGIIHDVKVFNREDGDELPPGVNQLVRVYIVQKRKISEGDKMAGRHGNKGVISKILPEEDMPYLPDGTPIDIMLNPLGVPSRMNIGQVLELHMGMAARYLGIHIASPVFDGAREEDVWETLEEAGMSRDAKTVLYDGRTGEPFDNRVSVGIMYMIKLAHMVDDKLHARSTGPYSLVTQQPLGGKAQFGGQRFGEMEVWALEAYGAAYTLQEILTVKSDDVVGRVKTYEAIVKGDNVPEPGVPESFKVLIKELQSLGMDVKILSGDEEEIEMRDLEDEEDAKQADGLALSGDEEPEETASADVERDVVTKE
partner: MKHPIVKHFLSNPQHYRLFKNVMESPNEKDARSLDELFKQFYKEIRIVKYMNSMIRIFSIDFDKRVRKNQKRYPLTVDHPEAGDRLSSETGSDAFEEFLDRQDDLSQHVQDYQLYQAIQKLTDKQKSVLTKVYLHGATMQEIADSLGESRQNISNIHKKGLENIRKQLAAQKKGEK

Variants of B1 are the subject of one assay. To be noted: with rpoc_bacsu rpoC.
Turning to MDGQFEQKKKQKDETYDIEHLIACFSPMIRKKLSNTSYQEAEDLEQELKIKMFEKADMLLCQDVPGFWEFILYMVDENS [R41A], the “effect of a mutation on the interaction” value is on record as “decreasing interaction”.

Consider MDGQFEQKKKQKDETYDIEHLIACFSPMIRKKLSNTSYQEREDLEEELKIKMFEKADMLLCQDVPGFWEFILYMVDENS [Q46E], for which the “effect of a mutation on the interaction” value was “decreasing interaction strength”.

As to MDGQFEQKKKQKDETYDIEHLIACFSPMIRKKLSNTSYQEREDLEAELKIKMFEKADMLLCQDVPGFWEFILYMVDENS [Q46A], the “effect of a mutation on the interaction” value is recorded as “decreasing interaction strength”.

Consider MDGQFEQKKKQKDETYDIEHLIACFSPMIRKKLSNTSYQERENLEQELKIKMFEKADMLLCQDVPGFWEFILYMVDENS [D43N], for which the “effect of a mutation on the interaction” value is “decreasing interaction strength”.

MDGQFEQKKKQKDETYDIEHLIACFSPMIRKKLSNTSYQEREALEQELKIKMFEKADMLLCQDVPGFWEFILYMVDENS [D43A]: the “effect of a mutation on the interaction” value was “decreasing interaction strength”.

For MDGQFEQKKKQKDETYDIEHLIACFSPMIRKKLSNTSYQEREDAEQELKIKMFEKADMLLCQDVPGFWEFILYMVDENS [L44A], the “effect of a mutation on the interaction” value was “decreasing interaction strength”.

As for MDGQFEQKKKQKDETYDIEHLIACFSPMIRKKLSNTSYQEREDEEQELKIKMFEKADMLLCQDVPGFWEFILYMVDENS [L44E], the “effect of a mutation on the interaction” value was “decreasing interaction strength”.

Variants of B2 are the subject of the next assay. The note with it: with sigo_bacsu sigO.
Turning to F865K, the “effect of a mutation on the interaction” value is “decreasing interaction”.

Consider I864K, for which the “effect of a mutation on the interaction” value is given as “disrupting interaction”.

Values taken from IntAct's records for PubMed 19940246.
